T1: Par(1-170) (Staphylococcus aureus plasmid pSK1, UniProt Q9L8I7 1-170)
T1 sequence: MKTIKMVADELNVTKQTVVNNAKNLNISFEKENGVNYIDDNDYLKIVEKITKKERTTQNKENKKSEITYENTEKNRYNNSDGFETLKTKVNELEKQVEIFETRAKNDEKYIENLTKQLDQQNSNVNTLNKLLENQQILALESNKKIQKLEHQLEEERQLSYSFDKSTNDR

B1: pSK1 Par(78–170) (domain or fragment)
chain: NNSDGFETLKTKVNELEKQVEIFETRAKNDEKYIENLTKQLDQQNSNVNTLNKLLENQQILALESNKKIQKLEHQLEEERQLSYSFDKSTNDR
B2: pSK1 Par(1–170) (domain or fragment)
chain: T1 sequence
B3: half site mutant 18-mer (dsDNA)
DNA 1: ATGTTAGGTACCCGACTA
DNA 2: TAGTCGGGTACCTAACAT
B4: centromere repeat 3 (dsDNA)
DNA 1: ATGTTAGGTGGTAAACTA
DNA 2: TAGTTTACCACCTAACAT
B5: centromere repeat 4 (dsDNA)
DNA 1: ATGTTAGGCGGTAAACTA
DNA 2: TAGTTTACCGCCTAACAT
B6: palindromic 18-mer (crystallization site), FP (dsDNA)
DNA 1: ATGTTAGGTACCTAACTA
DNA 2: TAGTTAGGTACCTAACAT
B7: centromere repeat 2/5/7 (dsDNA)
DNA 1: ATGTTAGGTAGTAAACTA
DNA 2: TAGTTTACTACCTAACAT
B8: centromere repeat 6 (dsDNA)
DNA 1: ATGTTAGGTACTTAGCTA
DNA 2: TAGCTAAGTACCTAACAT
B9: centromere repeat 1 (dsDNA)
DNA 1: ATGTTAGGTGCCTAACTA
DNA 2: TAGTTAGGCACCTAACAT

We go through nine molecules from article PMC9595883 (Journal of molecular biology, 2022).

In general, stoichiometry N refers to the number of molecules, sites or subunits per partner or assembly. As usually defined, the Kd is a measure of binding affinity in units of concentration. A lower Kd goes with higher affinity.

The first data set deals with the molecule itself. Nature of the data set: SEC. In general terms: Size exclusion chromatography separates by hydrodynamic size, large species first.
Take B1: the “stoichiometry N” value worked out at 4. Consider B2, for which the “stoichiometry N” value was 4.

For the next data set, the target named is T1, Par(1-170). Nature of the data set: fluorescence polarization. A general note: Polarisation of emitted light reports the rotation of a fluorescent probe.
B3 showed a dissociation constant (Kd) of 195 ± 10.8 nM. In the case of B4, the dissociation constant Kd was 62.7 ± 1.3 nM. B5 returned a dissociation constant (Kd) of 140 ± 10 nM. For B6, binding was characterised by a dissociation constant (Kd) of 43.4 ± 1.5 nM. B7 displayed a dissociation constant (Kd) of 66.5 ± 4.9 nM. Regarding B8, the equilibrium dissociation constant (Kd) stood at 90.2 ± 5.6 nM. B9 returned a dissociation constant Kd of 67.5 ± 3.2 nM.
